pKd: −log10 of the molar value.
Target: human immunoglobulin G (hIgG) (human)
Assay: sandwich ELISA, hIgG coated on plate, CD64 titrated, monovalent fit

Substance: recombinant wild-type CD64 (from UniProt P12314 16-374) (receptor)
- pKd: 10.34

Substance: Flag-CD64 (from UniProt P12314 16-374) (receptor)
- pKd: 10.27
